In patent US20240117334A1, “FACTOR B PROTEASES” (Vertex Pharmaceuticals Incorporated, priority 2021, published 2024):

What follows are binders tested against Human Factor B (human) (UniProt P00751) (assay: cell-based or functional assay).
Chain of Human Factor B (human) (P00751 26-764 limits assumed): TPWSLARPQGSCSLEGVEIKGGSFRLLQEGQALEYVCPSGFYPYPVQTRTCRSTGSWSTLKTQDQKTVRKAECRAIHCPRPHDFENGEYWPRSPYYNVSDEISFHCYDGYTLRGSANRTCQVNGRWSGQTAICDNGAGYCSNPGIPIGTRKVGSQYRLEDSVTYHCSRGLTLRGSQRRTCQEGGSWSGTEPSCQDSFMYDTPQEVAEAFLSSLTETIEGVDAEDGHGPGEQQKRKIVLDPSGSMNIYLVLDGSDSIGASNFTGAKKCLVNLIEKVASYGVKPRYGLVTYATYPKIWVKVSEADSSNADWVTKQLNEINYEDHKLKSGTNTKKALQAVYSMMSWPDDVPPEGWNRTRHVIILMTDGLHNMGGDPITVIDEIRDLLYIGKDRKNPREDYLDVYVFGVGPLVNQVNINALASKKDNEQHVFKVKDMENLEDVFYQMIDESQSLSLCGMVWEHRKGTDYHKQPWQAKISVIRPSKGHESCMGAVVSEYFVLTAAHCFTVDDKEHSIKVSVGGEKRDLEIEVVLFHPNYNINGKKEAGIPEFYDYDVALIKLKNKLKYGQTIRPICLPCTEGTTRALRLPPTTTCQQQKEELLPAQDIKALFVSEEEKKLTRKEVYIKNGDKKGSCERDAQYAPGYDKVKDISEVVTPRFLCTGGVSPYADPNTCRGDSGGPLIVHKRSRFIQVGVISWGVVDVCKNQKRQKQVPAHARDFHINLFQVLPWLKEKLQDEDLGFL

Row | Binder | fB Cleavage EC50 [nM] | fB Cleavage, 80% plasma EC50 [nM] | EC50 (Factor B ELISA after digestion) [nM]
1 | chymase C22S/K40M/F41K/F173Y/D175R/S218E/A226R (enzyme) IIGGTESKPHSRPYMAYLEIVTSNGPSMKCGGFLIRRNFVLTAAHCAGRSITVTLGAHNITEEEDTWQKLEVIKQFRHPKYNTSTLHHDIMLLKLKEKASLTLAVGTLPFPSQFNFVPPGRMCRVAGWGRTGVLKPGSDTLQEVKLRLMDPQACSHYRRFDHNLQLCVGNPRKTKSAFKGDSGGPLLCAGVAQGIVSYGREDAKPPRVFTRISHYRPWINQILQAN | 203 | 4130 | 
2 | chymase C22S/P38Q/K40A/F41K/L99H/V138I/D175S/A190S/V213A/S218V/A226R (enzyme) IIGGTESKPHSRPYMAYLEIVTSNGQSAKCGGFLIRRNFVLTAAHCAGRSITVTLGAHNITEEEDTWQKLEVIKQFRHPKYNTSTHHHDIMLLKLKEKASLTLAVGTLPFPSQFNFVPPGRMCRIAGWGRTGVLKPGSDTLQEVKLRLMDPQACSHFRSFDHNLQLCVGNPRKTKSSFKGDSGGPLLCAGVAQGIASYGRVDAKPPRVFTRISHYRPWINQILQAN | 142 |  | 
3 | chymase C22S/P38Q/K40L/F41R/L99H/V138I/F173Y/D175S/A190S/V213A/S218I/A226R (enzyme) IIGGTESKPHSRPYMAYLEIVTSNGQSLRCGGFLIRRNFVLTAAHCAGRSITVTLGAHNITEEEDTWQKLEVIKQFRHPKYNTSTHHHDIMLLKLKEKASLTLAVGTLPFPSQFNFVPPGRMCRIAGWGRTGVLKPGSDTLQEVKLRLMDPQACSHYRSFDHNLQLCVGNPRKTKSSFKGDSGGPLLCAGVAQGIASYGRIDAKPPRVFTRISHYRPWINQILQAN | 60.3 |  | 
4 | chymase C22S/K40L/F41K/L99Q/F173Y/D175N/S218V/A226R (enzyme) IIGGTESKPHSRPYMAYLEIVTSNGPSLKCGGFLIRRNFVLTAAHCAGRSITVTLGAHNITEEEDTWQKLEVIKQFRHPKYNTSTQHHDIMLLKLKEKASLTLAVGTLPFPSQFNFVPPGRMCRVAGWGRTGVLKPGSDTLQEVKLRLMDPQACSHYRNFDHNLQLCVGNPRKTKSAFKGDSGGPLLCAGVAQGIVSYGRVDAKPPRVFTRISHYRPWINQILQAN | 110 | 5670 | 
5 | chymase C22S/K40L/F41K/L99H/F173Y/D175S/S218I/A226R (enzyme) IIGGTESKPHSRPYMAYLEIVTSNGPSLKCGGFLIRRNFVLTAAHCAGRSITVTLGAHNITEEEDTWQKLEVIKQFRHPKYNTSTHHHDIMLLKLKEKASLTLAVGTLPFPSQFNFVPPGRMCRVAGWGRTGVLKPGSDTLQEVKLRLMDPQACSHYRSFDHNLQLCVGNPRKTKSAFKGDSGGPLLCAGVAQGIVSYGRIDAKPPRVFTRISHYRPWINQILQAN | 101 | 4620 | 
6 | chymase C22S/K40M/F41R/L99Q/F173Y/D175R/S218I/A226R (enzyme) IIGGTESKPHSRPYMAYLEIVTSNGPSMRCGGFLIRRNFVLTAAHCAGRSITVTLGAHNITEEEDTWQKLEVIKQFRHPKYNTSTQHHDIMLLKLKEKASLTLAVGTLPFPSQFNFVPPGRMCRVAGWGRTGVLKPGSDTLQEVKLRLMDPQACSHYRRFDHNLQLCVGNPRKTKSAFKGDSGGPLLCAGVAQGIVSYGRIDAKPPRVFTRISHYRPWINQILQAN | 213 | 4480 | 
7 | chymase C22S/K40L/F41R/L99H/F173Y/D175Y/S218I/A226R (enzyme) IIGGTESKPHSRPYMAYLEIVTSNGPSLRCGGFLIRRNFVLTAAHCAGRSITVTLGAHNITEEEDTWQKLEVIKQFRHPKYNTSTHHHDIMLLKLKEKASLTLAVGTLPFPSQFNFVPPGRMCRVAGWGRTGVLKPGSDTLQEVKLRLMDPQACSHYRYFDHNLQLCVGNPRKTKSAFKGDSGGPLLCAGVAQGIVSYGRIDAKPPRVFTRISHYRPWINQILQAN | 84 | 5560 | 
8 | chymase C22S/P38Q/K40A/F41R/L99H/V138I/F173Y/D175N/A190S/V213A/S218V/A226R (enzyme) IIGGTESKPHSRPYMAYLEIVTSNGQSARCGGFLIRRNFVLTAAHCAGRSITVTLGAHNITEEEDTWQKLEVIKQFRHPKYNTSTHHHDIMLLKLKEKASLTLAVGTLPFPSQFNFVPPGRMCRIAGWGRTGVLKPGSDTLQEVKLRLMDPQACSHYRNFDHNLQLCVGNPRKTKSSFKGDSGGPLLCAGVAQGIASYGRVDAKPPRVFTRISHYRPWINQILQAN | 71.8 |  | 
9 | chymase C22S/K40M/F41K/L99N/F173Y/D175R/S218T/A226R (enzyme) IIGGTESKPHSRPYMAYLEIVTSNGPSMKCGGFLIRRNFVLTAAHCAGRSITVTLGAHNITEEEDTWQKLEVIKQFRHPKYNTSTNHHDIMLLKLKEKASLTLAVGTLPFPSQFNFVPPGRMCRVAGWGRTGVLKPGSDTLQEVKLRLMDPQACSHYRRFDHNLQLCVGNPRKTKSAFKGDSGGPLLCAGVAQGIVSYGRTDAKPPRVFTRISHYRPWINQILQAN | 216 | 4130 | 
10 | chymase C22S/K40M/F41R/L99Q/F173Y/D175R/S218V/A226R (enzyme) IIGGTESKPHSRPYMAYLEIVTSNGPSMRCGGFLIRRNFVLTAAHCAGRSITVTLGAHNITEEEDTWQKLEVIKQFRHPKYNTSTQHHDIMLLKLKEKASLTLAVGTLPFPSQFNFVPPGRMCRVAGWGRTGVLKPGSDTLQEVKLRLMDPQACSHYRRFDHNLQLCVGNPRKTKSAFKGDSGGPLLCAGVAQGIVSYGRVDAKPPRVFTRISHYRPWINQILQAN | 235 | 4070 | 
11 | chymase C22S/P38Q/K40A/F41R/L99H/F173Y/D175Y/V213Q/S218V/A226R/F228A (enzyme) IIGGTESKPHSRPYMAYLEIVTSNGQSARCGGFLIRRNFVLTAAHCAGRSITVTLGAHNITEEEDTWQKLEVIKQFRHPKYNTSTHHHDIMLLKLKEKASLTLAVGTLPFPSQFNFVPPGRMCRVAGWGRTGVLKPGSDTLQEVKLRLMDPQACSHYRYFDHNLQLCVGNPRKTKSAFKGDSGGPLLCAGVAQGIQSYGRVDAKPPRVATRISHYRPWINQILQAN | 769 |  | 
12 | chymase C22S/P38Q/K40A/F41R/L99H/D175N/V213Q/S218I/A226R/F228A (enzyme) IIGGTESKPHSRPYMAYLEIVTSNGQSARCGGFLIRRNFVLTAAHCAGRSITVTLGAHNITEEEDTWQKLEVIKQFRHPKYNTSTHHHDIMLLKLKEKASLTLAVGTLPFPSQFNFVPPGRMCRVAGWGRTGVLKPGSDTLQEVKLRLMDPQACSHFRNFDHNLQLCVGNPRKTKSAFKGDSGGPLLCAGVAQGIQSYGRIDAKPPRVATRISHYRPWINQILQAN | 553 |  | 
13 | chymase C22S/K40L/F41R/L99G/F173Y/D175R/S218V/A226R (enzyme) IIGGTESKPHSRPYMAYLEIVTSNGPSLRCGGFLIRRNFVLTAAHCAGRSITVTLGAHNITEEEDTWQKLEVIKQFRHPKYNTSTGHHDIMLLKLKEKASLTLAVGTLPFPSQFNFVPPGRMCRVAGWGRTGVLKPGSDTLQEVKLRLMDPQACSHYRRFDHNLQLCVGNPRKTKSAFKGDSGGPLLCAGVAQGIVSYGRVDAKPPRVFTRISHYRPWINQILQAN | 333 | 8620 | 

Next, values leading:

Row | fB Cleavage EC50 [nM] | fB Cleavage, 80% plasma EC50 [nM] | EC50 (Factor B ELISA after digestion) [nM] | Binder
14 | 28.1 |  | 30.2 | chymase C22S/P38Q/K40M/F41R/V138I/F173Y/D175R/A190S/V213A/S218V/A226R (enzyme) IIGGTESKPHSRPYMAYLEIVTSNGQSMRCGGFLIRRNFVLTAAHCAGRSITVTLGAHNITEEEDTWQKLEVIKQFRHPKYNTSTLHHDIMLLKLKEKASLTLAVGTLPFPSQFNFVPPGRMCRIAGWGRTGVLKPGSDTLQEVKLRLMDPQACSHYRRFDHNLQLCVGNPRKTKSSFKGDSGGPLLCAGVAQGIASYGRVDAKPPRVFTRISHYRPWINQILQAN
15 | 36.3 |  | 42.5 | chymase C22S/P38Q/K40L/F41R/V138I/F173Y/D175N/A190S/V213A/S218V/A226R (enzyme) IIGGTESKPHSRPYMAYLEIVTSNGQSLRCGGFLIRRNFVLTAAHCAGRSITVTLGAHNITEEEDTWQKLEVIKQFRHPKYNTSTLHHDIMLLKLKEKASLTLAVGTLPFPSQFNFVPPGRMCRIAGWGRTGVLKPGSDTLQEVKLRLMDPQACSHYRNFDHNLQLCVGNPRKTKSSFKGDSGGPLLCAGVAQGIASYGRVDAKPPRVFTRISHYRPWINQILQAN
16 | 788 |  |  | chymase C22S/P38Q/K40M/F41R/L99M/F173Y/D175N/V213Q/S218V/A226R/F228A (enzyme) IIGGTESKPHSRPYMAYLEIVTSNGQSMRCGGFLIRRNFVLTAAHCAGRSITVTLGAHNITEEEDTWQKLEVIKQFRHPKYNTSTMHHDIMLLKLKEKASLTLAVGTLPFPSQFNFVPPGRMCRVAGWGRTGVLKPGSDTLQEVKLRLMDPQACSHYRNFDHNLQLCVGNPRKTKSAFKGDSGGPLLCAGVAQGIQSYGRVDAKPPRVATRISHYRPWINQILQAN
17 | 6210 |  |  | chymase C22S/P38Q/V213Q/A226R/F228A (enzyme) IIGGTESKPHSRPYMAYLEIVTSNGQSKFCGGFLIRRNFVLTAAHCAGRSITVTLGAHNITEEEDTWQKLEVIKQFRHPKYNTSTLHHDIMLLKLKEKASLTLAVGTLPFPSQFNFVPPGRMCRVAGWGRTGVLKPGSDTLQEVKLRLMDPQACSHFRDFDHNLQLCVGNPRKTKSAFKGDSGGPLLCAGVAQGIQSYGRSDAKPPRVATRISHYRPWINQILQAN
18 | 92.1 |  |  | chymase C22S/P38Q/K40M/F41R/L99N/V138I/F173Y/D175T/A190S/V213A/S218V/A226R (enzyme) IIGGTESKPHSRPYMAYLEIVTSNGQSMRCGGFLIRRNFVLTAAHCAGRSITVTLGAHNITEEEDTWQKLEVIKQFRHPKYNTSTNHHDIMLLKLKEKASLTLAVGTLPFPSQFNFVPPGRMCRIAGWGRTGVLKPGSDTLQEVKLRLMDPQACSHYRTFDHNLQLCVGNPRKTKSSFKGDSGGPLLCAGVAQGIASYGRVDAKPPRVFTRISHYRPWINQILQAN
19 | 932 |  |  | chymase C22S/P38Q/K40M/F41R/D175N/V213Q/S218V/A226R/F228A (enzyme) IIGGTESKPHSRPYMAYLEIVTSNGQSMRCGGFLIRRNFVLTAAHCAGRSITVTLGAHNITEEEDTWQKLEVIKQFRHPKYNTSTLHHDIMLLKLKEKASLTLAVGTLPFPSQFNFVPPGRMCRVAGWGRTGVLKPGSDTLQEVKLRLMDPQACSHFRNFDHNLQLCVGNPRKTKSAFKGDSGGPLLCAGVAQGIQSYGRVDAKPPRVATRISHYRPWINQILQAN
20 | 65.3 |  |  | chymase C22S/P38Q/K40L/F41R/L99N/V138I/F173Y/D175N/A190S/V213A/S218V/A226R (enzyme) IIGGTESKPHSRPYMAYLEIVTSNGQSLRCGGFLIRRNFVLTAAHCAGRSITVTLGAHNITEEEDTWQKLEVIKQFRHPKYNTSTNHHDIMLLKLKEKASLTLAVGTLPFPSQFNFVPPGRMCRIAGWGRTGVLKPGSDTLQEVKLRLMDPQACSHYRNFDHNLQLCVGNPRKTKSSFKGDSGGPLLCAGVAQGIASYGRVDAKPPRVFTRISHYRPWINQILQAN
21 | 1350 |  |  | chymase C22S/P38Q/V138I/A190S/V213A/A226R (enzyme) IIGGTESKPHSRPYMAYLEIVTSNGQSKFCGGFLIRRNFVLTAAHCAGRSITVTLGAHNITEEEDTWQKLEVIKQFRHPKYNTSTLHHDIMLLKLKEKASLTLAVGTLPFPSQFNFVPPGRMCRIAGWGRTGVLKPGSDTLQEVKLRLMDPQACSHFRDFDHNLQLCVGNPRKTKSSFKGDSGGPLLCAGVAQGIASYGRSDAKPPRVFTRISHYRPWINQILQAN
